Test results: article PMC4738331, “A molecular mechanism realizing sequence-specific recognition of nucleic acids by TDP-43”

How the values were obtained:
TDP-43 RRM2 [1] = molecular target: T1, TDP-43 RRM2 (UniProt Q13148 186-267); assay: pull-down; Anisotropy: 50 mM Tris, 100 mM NaCl, pH 8.0, 10 C, 0.1 uM probe, 0-30 uM protein (RNasin for RNA); pull-down: same buffer on Ni resin, room temperature, 1 h, eluted with 1 M NaCl; conditions: protein: recombinant; tags: N-term His6 + thrombin site + GSSGSSG linker; His removed by thrombin for anisotropy, kept for pull-down
T1 sequence (Q13148 186-267): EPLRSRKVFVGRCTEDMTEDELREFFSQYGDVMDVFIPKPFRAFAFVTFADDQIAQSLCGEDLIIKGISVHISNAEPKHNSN

TDP-43 RRM1-2 [2] = molecular target: T2, TDP-43 RRM1-2 (UniProt Q13148 96-267); assay: as above; conditions: protein: recombinant; tags: N-term His6 + thrombin site + GSSGSSG linker; His removed by thrombin for anisotropy, kept for pull-down
T2 sequence (Q13148 96-267): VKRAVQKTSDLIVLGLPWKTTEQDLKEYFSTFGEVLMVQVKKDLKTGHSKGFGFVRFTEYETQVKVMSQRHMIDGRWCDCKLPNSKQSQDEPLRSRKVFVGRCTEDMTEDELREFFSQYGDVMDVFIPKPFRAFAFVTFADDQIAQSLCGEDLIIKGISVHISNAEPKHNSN

TDP-43 RRM1 [3] = molecular target: T3, TDP-43 RRM1 (UniProt Q13148 96-185); assay: as above; conditions: protein: recombinant; tags: N-term His6 + thrombin site + GSSGSSG linker; His removed by thrombin for anisotropy, kept for pull-down
T3 sequence (Q13148 96-185): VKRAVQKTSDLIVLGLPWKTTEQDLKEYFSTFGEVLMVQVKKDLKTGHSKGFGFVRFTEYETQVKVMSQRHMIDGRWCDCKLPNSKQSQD

TDP-43 RRM2 [4] = molecular target: T1, TDP-43 RRM2; assay: fluorescence anisotropy; Anisotropy: 50 mM Tris, 100 mM NaCl, pH 8.0, 10 C, 0.1 uM probe, 0-30 uM protein (RNasin for RNA); pull-down: same buffer on Ni resin, room temperature, 1 h, eluted with 1 M NaCl; conditions: protein: recombinant; tags: N-term His6 + thrombin site + GSSGSSG linker; His removed by thrombin for anisotropy, kept for pull-down; label: 5'-fluorescein
TDP-43 RRM1-2 [5] = molecular target: T2, TDP-43 RRM1-2; assay: as above; conditions: protein: recombinant; tags: N-term His6 + thrombin site + GSSGSSG linker; His removed by thrombin for anisotropy, kept for pull-down; label: 5'-fluorescein
TDP-43 RRM1 [6] = molecular target: T3, TDP-43 RRM1; assay: as above; conditions: protein: recombinant; tags: N-term His6 + thrombin site + GSSGSSG linker; His removed by thrombin for anisotropy, kept for pull-down; label: 5'-fluorescein
TDP-43 RRM2 [7] = molecular target: T1, TDP-43 RRM2; assay: fluorescence anisotropy; RNasin; Anisotropy: 50 mM Tris, 100 mM NaCl, pH 8.0, 10 C, 0.1 uM probe, 0-30 uM protein (RNasin for RNA); pull-down: same buffer on Ni resin, room temperature, 1 h, eluted with 1 M NaCl; conditions: protein: recombinant; tags: N-term His6 + thrombin site + GSSGSSG linker; His removed by thrombin for anisotropy, kept for pull-down; label: 5'-fluorescein
TDP-43 RRM1-2 [8] = molecular target: T2, TDP-43 RRM1-2; assay: as above; conditions: protein: recombinant; tags: N-term His6 + thrombin site + GSSGSSG linker; His removed by thrombin for anisotropy, kept for pull-down; label: 5'-fluorescein
TDP-43 RRM1 [9] = molecular target: T3, TDP-43 RRM1; assay: as above; conditions: protein: recombinant; tags: N-term His6 + thrombin site + GSSGSSG linker; His removed by thrombin for anisotropy, kept for pull-down; label: 5'-fluorescein

**Q.** Does TTTTTTTTTTTTTTTTTTTTTTTTTTTTTT (ssDNA) [T30] bind (TDP-43 RRM2 [1])?
**A.** Result: no binding

**Q.** Does TTTTTTTTTTTTTTTTTTTTTTTTTTTTTT (ssDNA) [T30] bind (TDP-43 RRM1-2 [2])?
**A.** Result: binds

**Q.** Does TTTTTTTTTTTTTTTTTTTTTTTTTTTTTT (ssDNA) [T30] bind (TDP-43 RRM1 [3])?
**A.** Result: binds

**Q.** Does ACACACAC (ssDNA) [Fl-(AC)4 ssDNA] bind (TDP-43 RRM2 [4])?
**A.** Result: no binding

**Q.** Does ACACACAC (ssDNA) [Fl-(AC)4 ssDNA] bind (TDP-43 RRM1-2 [5])?
**A.** Result: no binding

**Q.** Does ACACACAC (ssDNA) [Fl-(AC)4 ssDNA] bind (TDP-43 RRM1 [6])?
**A.** Result: no binding

**Q.** Does UGUGUGUG (ssRNA) [Fl-(UG)4 RNA] bind (TDP-43 RRM2 [7])?
**A.** Result: no binding

**Q.** What about the Kd (TDP-43 RRM1-2 [8]) of the same binder?
**A.** Its Kd is 3.5 ± 2.3 nM.

**Q.** What about the Kd (TDP-43 RRM1 [9]) of the same binder?
**A.** Its Kd is 28 ± 9 nM.

**Q.** Does UGUGUGUG (ssDNA, DNA with T replaced by U) [Fl-(UG)4 ssDNA] bind (TDP-43 RRM2 [4])?
**A.** Result: no binding

**Q.** And the Kd (TDP-43 RRM1-2 [5])?
**A.** Its Kd is 150 ± 23 nM.

**Q.** And the Kd (TDP-43 RRM1 [6])?
**A.** Its Kd is 61 ± 30 nM.

**Q.** What does the source list for TTTTTTTTTTTT (ssDNA) [T12]?
**A.** binding result (TDP-43 RRM2 [1]): no binding; binding result (TDP-43 RRM1-2 [2]): binds; binding result (TDP-43 RRM1 [3]): binds

**Q.** Does TGTGTGTG (ssDNA) [Fl-(TG)4 ssDNA] bind (TDP-43 RRM2 [4])?
**A.** Result: no binding

**Q.** What about the Kd (TDP-43 RRM1-2 [5]) of the same binder?
**A.** Its Kd is 77 ± 4.2 nM.

**Q.** And the Kd (TDP-43 RRM1 [6])?
**A.** Its Kd is 52 ± 12 nM.
